{"source": "patent US20150182581A1", "assay_in_all_cases": "cell-based or functional assay", "key": {"[1]": {"biological_target": "HIV-1 Nef (full length Nef gene, accession no. GQ184335) cloned in VP16pCDNA+pACT mammalian two-hybrid vector (herpes simplex virus type 1; HIV-1)"}, "[2]": {"biological_target": "ASK1(h) cloned in pEYFP-N1 (human) (UniProt Q99683)", "sequence (Q99683 320-1050)": "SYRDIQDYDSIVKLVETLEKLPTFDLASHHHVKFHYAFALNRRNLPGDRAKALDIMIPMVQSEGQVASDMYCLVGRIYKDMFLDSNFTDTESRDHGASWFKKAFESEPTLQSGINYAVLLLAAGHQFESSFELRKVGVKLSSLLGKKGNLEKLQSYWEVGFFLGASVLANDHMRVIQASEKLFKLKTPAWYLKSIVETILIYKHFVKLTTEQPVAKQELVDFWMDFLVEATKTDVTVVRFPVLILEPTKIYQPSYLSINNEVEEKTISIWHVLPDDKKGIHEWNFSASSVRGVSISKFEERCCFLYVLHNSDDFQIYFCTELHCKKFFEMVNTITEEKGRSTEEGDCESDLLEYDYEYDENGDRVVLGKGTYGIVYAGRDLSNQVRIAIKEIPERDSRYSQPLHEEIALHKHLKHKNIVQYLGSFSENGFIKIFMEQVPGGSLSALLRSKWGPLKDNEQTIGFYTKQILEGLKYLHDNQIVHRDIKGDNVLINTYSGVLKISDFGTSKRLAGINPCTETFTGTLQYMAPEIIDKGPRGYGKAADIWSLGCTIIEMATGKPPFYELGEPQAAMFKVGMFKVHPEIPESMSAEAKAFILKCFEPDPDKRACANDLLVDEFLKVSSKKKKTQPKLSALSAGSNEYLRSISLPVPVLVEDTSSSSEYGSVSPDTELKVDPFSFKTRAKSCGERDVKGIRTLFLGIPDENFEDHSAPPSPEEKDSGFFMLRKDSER"}, "[3]": {"biological_target": "ASK1(g) cloned in pEYFP-N1 (human) (UniProt Q99683)", "sequence (Q99683 1-1050)": "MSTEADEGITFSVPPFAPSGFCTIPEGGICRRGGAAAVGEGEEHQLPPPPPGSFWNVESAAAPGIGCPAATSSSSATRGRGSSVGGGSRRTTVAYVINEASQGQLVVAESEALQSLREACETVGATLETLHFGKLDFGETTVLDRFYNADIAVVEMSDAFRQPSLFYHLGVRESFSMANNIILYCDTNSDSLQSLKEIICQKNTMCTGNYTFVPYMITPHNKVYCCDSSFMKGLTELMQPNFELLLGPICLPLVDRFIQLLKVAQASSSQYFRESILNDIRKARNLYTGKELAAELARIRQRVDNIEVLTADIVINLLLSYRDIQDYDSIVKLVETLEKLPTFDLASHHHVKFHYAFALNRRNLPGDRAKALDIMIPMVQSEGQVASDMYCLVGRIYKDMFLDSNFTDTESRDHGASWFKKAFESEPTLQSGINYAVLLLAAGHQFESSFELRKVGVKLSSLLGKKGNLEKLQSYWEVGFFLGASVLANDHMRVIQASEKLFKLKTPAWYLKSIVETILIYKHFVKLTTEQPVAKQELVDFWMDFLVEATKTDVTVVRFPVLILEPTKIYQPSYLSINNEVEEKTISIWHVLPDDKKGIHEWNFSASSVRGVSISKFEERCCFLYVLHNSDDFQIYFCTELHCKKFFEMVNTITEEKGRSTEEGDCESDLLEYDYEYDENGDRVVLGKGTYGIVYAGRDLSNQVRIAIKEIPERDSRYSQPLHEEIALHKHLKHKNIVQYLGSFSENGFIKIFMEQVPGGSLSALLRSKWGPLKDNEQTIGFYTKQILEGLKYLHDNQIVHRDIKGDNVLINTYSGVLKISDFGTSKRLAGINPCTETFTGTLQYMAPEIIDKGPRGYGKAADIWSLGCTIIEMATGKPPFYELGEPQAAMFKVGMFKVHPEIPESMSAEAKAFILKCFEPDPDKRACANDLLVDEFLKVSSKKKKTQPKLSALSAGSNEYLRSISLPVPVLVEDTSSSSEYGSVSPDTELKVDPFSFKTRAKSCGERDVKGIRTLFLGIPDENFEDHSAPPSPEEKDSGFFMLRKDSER"}, "[4]": {"biological_target": "ASK1i cloned in pEYFP-N1 (human) (UniProt Q99683)", "sequence (Q99683 1-904)": "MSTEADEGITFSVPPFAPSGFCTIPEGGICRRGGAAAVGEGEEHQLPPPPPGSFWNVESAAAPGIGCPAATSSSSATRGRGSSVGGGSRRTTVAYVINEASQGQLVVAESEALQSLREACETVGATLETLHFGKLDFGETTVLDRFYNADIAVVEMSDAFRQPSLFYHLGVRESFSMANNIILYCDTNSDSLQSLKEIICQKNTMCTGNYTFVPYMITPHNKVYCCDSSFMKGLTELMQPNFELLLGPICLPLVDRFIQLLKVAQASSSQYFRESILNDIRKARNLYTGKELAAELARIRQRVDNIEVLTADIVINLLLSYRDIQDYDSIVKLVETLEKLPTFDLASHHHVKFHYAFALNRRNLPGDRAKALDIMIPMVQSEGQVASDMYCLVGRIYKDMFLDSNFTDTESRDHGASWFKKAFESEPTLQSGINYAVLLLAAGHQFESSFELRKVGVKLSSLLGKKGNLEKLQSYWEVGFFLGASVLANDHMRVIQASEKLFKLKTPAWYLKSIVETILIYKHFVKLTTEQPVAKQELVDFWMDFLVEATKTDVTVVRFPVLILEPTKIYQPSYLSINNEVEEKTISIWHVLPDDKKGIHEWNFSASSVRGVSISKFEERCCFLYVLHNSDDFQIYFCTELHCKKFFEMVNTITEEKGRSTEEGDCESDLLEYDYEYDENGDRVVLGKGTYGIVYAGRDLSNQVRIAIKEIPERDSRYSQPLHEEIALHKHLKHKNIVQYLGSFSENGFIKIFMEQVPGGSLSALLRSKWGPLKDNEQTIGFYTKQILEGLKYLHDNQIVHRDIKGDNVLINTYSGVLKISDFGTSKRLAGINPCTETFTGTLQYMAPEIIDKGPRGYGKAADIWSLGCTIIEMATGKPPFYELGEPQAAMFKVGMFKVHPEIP"}}}
{"substance": "ASK1b (959-2010) cloned in pBIND (from UniProt P04386 1-147; Q99683 320-670)", "values": [{"measurement": "luciferase activity compared to negative control pACT-pBIND", "setting": "[1]", "value": 1.1, "unit": "fold"}]}
{"substance": "ASK1h (Contain ASK1d and upstream sequence) cloned in pBIND (from UniProt P04386 1-147; Q99683 320-1050)", "values": [{"measurement": "luciferase activity compared to negative control", "setting": "[1]", "value": 8.41, "unit": "fold"}]}
{"substance": "ASK1a (1-1035) cloned in pBIND (from UniProt P04386 1-147; Q99683 1-345)", "values": [{"measurement": "luciferase activity compared to negative control pACT-pBIND", "setting": "[1]", "value": 2.28, "unit": "fold"}]}
{"substance": "ASK1d (2581-3152) cloned in pBIND (from UniProt P04386 1-147; Q99683 861-1050)", "values": [{"measurement": "luciferase activity compared to negative control pACT-pBIND", "setting": "[1]", "value": 2.89, "unit": "fold"}]}
{"substance": "ASK1j (contain in between ASK1a and ASK1d fragment) cloned in pBIND (from UniProt P04386 1-147; Q99683 320-904)", "values": [{"measurement": "luciferase activity compared to negative control", "setting": "[1]", "value": 0.5, "unit": "fold"}]}
{"substance": "ASK1i (contain ASK1a and downstream sequence) cloned in pBIND (from UniProt P04386 1-147; Q99683 1-904)", "values": [{"measurement": "luciferase activity compared to negative control", "setting": "[1]", "value": 2.72, "unit": "fold"}]}
{"substance": "HIV-1 Nef (accession no. GQ184335) cloned in pEYFP-N1", "values": [{"measurement": "annexin V stained cells after co-transfection", "setting": "[2]", "value": 38, "unit": "%"}, {"measurement": "inhibition of apoptosis", "setting": "[2]", "value": 10, "unit": "%"}, {"measurement": "% of Annexin V cells means apoptotic cells", "setting": "[3]", "value": 22.1, "unit": "%"}, {"measurement": "annexin V stained cells after co-transfection", "setting": "[3]", "value": 20, "unit": "%"}, {"measurement": "inhibition of apoptosis", "setting": "[3]", "value": 52, "unit": "%"}, {"measurement": "inhibition of apoptosis (annexin V and PI staining)", "setting": "[3]", "value": 50, "unit": "%"}, {"measurement": "phosphorylation of JNK kinase (western blot, densitometry)", "setting": "[3]", "value": 2, "unit": "fold"}, {"measurement": "annexin V stained cells after co-transfection", "setting": "[4]", "value": 26, "unit": "%"}, {"measurement": "inhibition of apoptosis", "setting": "[4]", "value": 42, "unit": "%"}]}
{"substance": "ASK1g (contain both ASK1a, ASK1d and in between sequence) cloned in pBIND (from UniProt P04386 1-147; Q99683 1-1050)", "values": [{"measurement": "luciferase activity compared to negative control pACT-pBIND", "setting": "[1]", "value": 154, "unit": "fold"}]}
